Source: US20120041177A1 (SPIBER TECHNOLOGIES AB C O RISING, published 2012)

T1: NT-REP4-CT
T1 construct: Stood in the assay as a solid fiber (about 0.5 cm, about 50 ug) or as a cast film; also called NT4RepCT
T1 chain: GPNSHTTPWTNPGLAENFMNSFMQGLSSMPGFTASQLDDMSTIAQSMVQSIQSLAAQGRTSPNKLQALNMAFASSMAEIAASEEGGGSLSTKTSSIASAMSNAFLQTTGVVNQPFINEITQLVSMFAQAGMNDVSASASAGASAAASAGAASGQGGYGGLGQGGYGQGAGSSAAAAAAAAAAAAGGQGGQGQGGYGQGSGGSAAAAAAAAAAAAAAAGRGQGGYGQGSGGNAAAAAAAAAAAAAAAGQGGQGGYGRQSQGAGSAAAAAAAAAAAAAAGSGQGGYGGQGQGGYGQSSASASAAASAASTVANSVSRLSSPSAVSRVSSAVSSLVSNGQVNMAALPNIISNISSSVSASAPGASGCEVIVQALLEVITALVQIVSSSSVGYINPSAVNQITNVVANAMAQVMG

T2: NT2-REP4-CT
T2 construct: Stood in the assay as a solid fiber; also called NTNT-REP-CT; HisNTNT4RepCT
T2 chain: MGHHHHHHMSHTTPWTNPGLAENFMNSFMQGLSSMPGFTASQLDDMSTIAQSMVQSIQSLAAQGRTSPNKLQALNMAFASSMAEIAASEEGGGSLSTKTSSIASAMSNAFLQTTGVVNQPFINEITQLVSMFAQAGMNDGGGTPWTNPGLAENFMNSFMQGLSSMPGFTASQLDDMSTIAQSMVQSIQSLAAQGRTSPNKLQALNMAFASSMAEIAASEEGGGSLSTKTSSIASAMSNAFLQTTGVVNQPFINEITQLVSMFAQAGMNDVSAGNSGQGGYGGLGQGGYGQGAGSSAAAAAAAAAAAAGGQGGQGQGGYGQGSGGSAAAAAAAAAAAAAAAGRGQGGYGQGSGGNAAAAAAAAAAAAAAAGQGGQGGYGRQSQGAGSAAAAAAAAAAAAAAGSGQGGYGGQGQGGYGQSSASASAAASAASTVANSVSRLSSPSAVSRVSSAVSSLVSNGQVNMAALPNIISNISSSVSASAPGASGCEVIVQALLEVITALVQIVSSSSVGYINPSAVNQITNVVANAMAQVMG


Key:
[1] = target: the molecule itself; assay: self-polymerisation at pH 6; macroscopic formation, SEM and turbidimetry
NT-REP4-CT = target: T1, NT-REP4-CT; assay: capture of soluble protein on fibers at pH 6, release at pH 7, SDS-PAGE; 300 mM NaCl decreased capture at pH 6
Method: (§1) Fibers (˜0.5 cm long, ˜50 ug) of NT-REP₄-CT (SEQ ID NO 20), NT₂-REP₄-CT (SEQ ID NO 23) and REP₄-CT (SEQ ID NO 2, control) were submerged in 100 μl solution of 5 mg/ml soluble NTHis (SEQ ID NO 30) or NT₂-Brichos (SEQ ID NO 32) at pH 8 for 10 minutes. The pH was decreased by addition of 400 ul sodium phosphate buffer (NaP) to pH 6 and incubated for 10 minutes to allow assembly of soluble NT to the fiber. The fibers were transferred to 500 μl of NaP at pH 6, and washed twice. Finally, the fibers were transferred to 500 μl of NaP at pH 7, and incubated 10 minutes to allow release of soluble NT. The same was done in the presence of 300 mM NaCl in all pH 6 NaP buffers. Samples from the different solutions were analysed on SDS-PAGE.

NT2-REP4-CT = target: T2, NT2-REP4-CT; assay: as above
Method: as §1

[2] = target: the molecule itself; assay: self-polymerisation at pH 6
[3] = target: the molecule itself; assay: self-association; dynamic light scattering and turbidimetry; reversed by an increase of pH, blocked by high levels of salt
Method: The effect of pH and ionic strength on the hydrodynamic diameter of NT and NTΔHis6 (to exclude that pH dependent effects are caused by His at position 6) was measured at 25±0.1° C. in a Zetasizer Nano S from Malvern Instruments (Worcestershire, UK) equipped with a 633 nm HeNe laser. The buffers were filtered through nylon filters prior to use. The sample volume was 50 μl and ZEN2112 low glass cuvettes were used. The attenuation and measurement positions from the cuvette wall (4.65 mm) were kept constant for all analyses. Six scans were performed for each sample. All samples were analyzed in triplicate. The hydrodynamic diameter (dH) was calculated using the General Purpose algorithm in the Malvern software for DLS analysis, which correlates the diffusion coefficient to the hydrodynamic diameter through the Stokes-Einstein equation: […]
NT was subjected to dynamic light scattering at pH 6-7 and 0-300 mM NaCl. See also Table 3

[4] = target: the molecule itself; assay: self-polymerisation at pH 6; macroscopic formation and SEM
Method: Conditions for fiber formation were essentially as described in Stark, M. et al. Biomacromolecules 8, 1695-1701, (2007). Approximately 25 μM of each protein was incubated in 20 mM Na phosphate buffer at pH 7 or 6, with or without 300 mM NaCl. At different time points, samples were applied on SEM stubs, where they were air-dried and vacuum-coated with gold and palladium. The samples were photographed with a LEO 1550 FEG microscope (Carl Zeiss, Oberkochen, Germany) using an acceleration voltage of 5 kV.
The arrows in FIG. 3 indicate when macroscopic formations first were detected, showing that at pH 7 the presence of NT delays polymerisation, while at pH 6 it accelerates polymerisation. This is independent of whether the C-terminal fragment (filled circle) is present or not (indicated by the striped circle). Moreover, the presence of NT results in more ordered polymerisation, exemplified by the scanning electron micrographs in FIG. 3, which are representative early polymers for all constructs at pH 7 (above time scale) or for NT4RepCT at pH 6 (below time scale).

| Binder | binding result (NT-REP4-CT) | binding result (NT2-REP4-CT) | other results |
| --- | --- | --- | --- |
| NT4Rep (other, Non-natural minispidroin derived from Euprosthenops australis MaSp1; Released from His6TrxHis6 by thrombin) GSGNSHTTPWTNPGLAENFMNSFMQGLSSMPGFTASQLDDMSTIAQSMVQSIQSLAAQGRTSPNKLQALNMAFASSMAEIAASEEGGGSLSTKTSSIASAMSNAFLQTTGVVNQPFINEITQLVSMFAQAGMNDVSASASAGASAAASAGAASGQGGYGGLGQGGYGQGAGSSAAAAAAAAAAAAGGQGGQGQGGYGQGSGGSAAAAAAAAAAAAAAAGRGQGGYGQGSGGNAAAAAAAAAAAAAAAGQGGQGGYGRQSQGAGSAAAAAAAAAAAAAAGSGQGGYGGQGQGGYGQS | – | – | binding result [1]: binds |
| NTHis (other, Soluble protein, used at 5 mg/ml; also called NT as an N-terminal fusion to His6; soluble NT) MSHTTPWTNPGLAENFMNSFMQGLSSMPGFTASQLDDMSTIAQSMVQSIQSLAAQGRTSPNKLQALNMAFASSMAEIAASEEGGGSLSTKTSSIASAMSNAFLQTTGVVNQPFINEITQLVSMFAQAGMNDVSASASAGASAAASAGAAALEHHHHHH | binds | binds | – |
| NT5Rep (other, Non-natural minispidroin derived from Euprosthenops australis MaSp1; Released from His6TrxHis6 by thrombin) GSGNSHTTPWTNPGLAENFMNSFMQGLSSMPGFTASQLDDMSTIAQSMVQSIQSLAAQGRTSPNKLQALNMAFASSMAEIAASEEGGGSLSTKTSSIASAMSNAFLQTTGVVNQPFINEITQLVSMFAQAGMNDVSASASAGASAAASAGAPGYSPAPSYSSGGYASSAASAAAAAGQGGPGGYGPAPNQGASSAAAAAAGSGQGPSGPYGTSYQISTQYTQTTTSQGQGYGSSSAGAAAAGAAGAGQGGYGGQGQGGYGQGAGGAAAAAAAAAAAAAAAGQGGQGGGGYGQGGQGGQGGQGQGGYGQGAGSSAAAAAAAAAAAAAAGRGQGGYGPGSGG | – | – | binding result [2]: binds |
| NT2-Brichos (other, Soluble fusion protein with His6, used at 5 mg/ml; also called NT-NT-Brichos; NTNTBrichos) MGHHHHHHMSHTTPWTNPGLAENFMNSFMQGLSSMPGFTASQLDDMSTIAQSMVQSIQSLAAQGRTSPNKLQALNMAFASSMAEIAASEEGGGSLSTKTSSIASAMSNAFLQTTGVVNQPFINEITQLVSMFAQAGMNDGGGTPWTNPGLAENFMNSFMQGLSSMPGFTASQLDDMSTIAQSMVQSIQSLAAQGRTSPNKLQALNMAFASSMAEIAASEEGGGSLSTKTSSIASAMSNAFLQTTGVVNQPFINEITQLVSMFAQAGMNDVSAGNSEHLVTTATFSIGSTGLVVYDYQQLLIAYKPAPGTCCYIMKIAPESIPSLEALTRKVHNFQMECSLQAKPAVPTSKLGQAEGRDAGSAPSGGDPAFLGMAVSTLCGEVPLYYI | binds | binds | – |
| NT, N-terminal fragment of major ampullate spidroin (MaSp) 1 from Euprosthenops australis (other, Expressed as a C-terminal fusion to His6TrxHis6 and released by thrombin) GSGNSHTTPWTNPGLAENFMNSFMQGLSSMPGFTASQLDDMSTIAQSMVQSIQSLAAQGRTSPNKLQALNMAFASSMAEIAASEEGGGSLSTKTSSIASAMSNAFLQTTGVVNQPFINEITQLVSMFAQAGMNDVSA | – | – | binding result [3]: binds |
| NT4RepCT (as an N-terminal fusion to His6) (other, also called NT4RepCTHis) MKASHTTPWTNPGLAENFMNSFMQGLSSMPGFTASQLDDMSTIAQSMVQSIQSLAAQGRTSPNKLQALNMAFASSMAEIAASEEGGGSLSTKTSSIASAMSNAFLQTTGVVNQPFINEITQLVSMFAQAGMNDVSASASAGASAAASAGAASGQGGYGGLGQGGYGQGAGSSAAAAAAAAAAAAGGQGGQGQGGYGQGSGGSAAAAAAAAAAAAAAAGRGQGGYGQGSGGNAAAAAAAAAAAAAAAGQGGQGGYGRQSQGAGSAAAAAAAAAAAAAAGSGQGGYGGQGQGGYGQSSASASAAASAASTVANSVSRLSSPSAVSRVSSAVSSLVSNGQVNMAALPNIISNISSSVSASAPGASGCEVIVQALLEVITALVQIVSSSSVGYINPSAVNQITNVVANAMAQVMGKLAAALEHHHHHH | – | – | binding result [4]: binds |
